Test results: US7838288B2, “Modulators of odorant receptors” (Duke University, priority 2004, dated 2010)

How the values were obtained:
Assay type in all cases: cell-based, mouse
OR-S6/S79 = experiment: CRE-luciferase reporter gene assay, OR-S6/S79; conditions: 293T cells expressing RTP1 variant
Procedure: Four ORs (S6/79, S18, S46 and S50) previously assayed using other techniques (see, e.g., Malnic, B., et al. (1999) Cell 96, 713-723; herein incorporated by reference in its entirety) were tested against an assay panel of aliphatic alcohols, aldehydes and acids and some other odorants. Additionally, five “orphan” class I ORs (MOR23-1, MOR31-4, MOR31-6, MOR32-5 and MOR32-11) whose cognate ligands were unknown were tested. At a suprathreshold concentration of 100 uM, all these ORs were odorant selective, responding to only a small subset of the odorants tested (see FIG. 11A). This specificity was retained at lower, more physiologically relevant concentrations. Many of these ORs responded to odorants present in micromolar concentrations. The cell-surface expression of these ORs by living-cell immunofluorescence were evaluated. Some ORs (S18, MOR31-4, MOR31-6 and MOR32-5) were strongly expressed while other ORs (S6, S50, MOR23-1, MOR32-11) were weakly expressed (see FIG. 12). The present invention is not limited to a particular mechanism. Indeed, an understanding of the mechanism is not necessary to practice the present invention. […] Finally, two additional orphan class II ORs, MOR203-1 and olfr62, were tested against a panel of 139 odorants. […] Olfr62 responded to coumarine and piperonal (see FIG. 11C). […] When parental 293T cells for these ORs were used in this luciferase assay, little or no response to the odorants was observed. The present invention is not limited to a particular mechanism. Indeed, an understanding of the mechanism is not necessary to practice the present invention.
An expression system has been established that permits rapid identification of ligands for ORs. This system was tested with twelve ORs. Four of the tested ORs (S6/S79, S18, S46, and S50) were expressed in single olfactory neurons responding to aliphatic odorants (see, e.g., Malnic, B., et al. (1999) Cell 96, 713-723; herein incorporated by reference in its entirety). The response profiles of OR-S50, but not that of OR-S18 agreed with the previous report (see, e.g., Malnic, B., et al. (1999) Cell 96, 713-723; herein incorporated by reference in its entirety). […] In experiments conducted during the course of the present invention, OR-S6/S79 responded to nonanedioic acid but not to heptanoic acid or octanoic acid. The present invention is not limited to a particular mechanism. […] When multiple single olfactory neurons that expressed the same OR were recorded against the same set of odorants using calcium imaging, their response profiles were similar but different (see, e.g., Bozza, T., et al. (2002) J Neurosci 22, 3033-3043; herein incorporated by reference in its entirety).
Dual-Glo system (Promega) for luciferase assay was used. […] Luminescence was measured using Wallac Victor 1420 (Perkin-Elmer). […]

OREG = experiment: Living-cell staining of cell-surface OREG; conditions: accessory protein co-transfected in 293T cells
Procedure: The proteins encoded by these clones were named REEP1, for Receptor Expression Enhancing Protein 1 and RTP1, for Receptor Transporting Protein 1. Subsequently, RTP2 was found, a close relative of RTP1. […] Next, REEP1, RTP1, and RTP2 were tested to detect a similar effect in promoting cell-surface expression of other ORs. Four different ORs (mouse OREG, mouse olfr62, mouse OR-S46 and rat I7) were expressed in 293T cells with or without REEP1, RTP1, or RTP2. […] Additionally, ORs transfected with REEP and/or RTP generated more immunofluorescent cells and stronger signals in positive cells compared with ORs without REEP and/or RTP (see FIG. 2A). The signal intensity and the number of immunopositive cells varied when using different ORs at each condition. […] Nonetheless, occasional immunopositive cells were observed only when the accessory proteins were co-expressed. The effects of RTP1 or RTP2 were consistently more robust than that of REEP1. […]

S6 = experiment: Living-cell staining of cell-surface S6; conditions: accessory protein co-transfected in 293T cells
Procedure: (§1) 293T cells were maintained in minimal essential medium containing 10% fetal bovine serum (M10). Lipofectamine 2000 (Invitrogen) was used for transfection. In live-cell staining, 16 hours after transfection, cells were incubated in M10 containing anti rhodopsin antibody, 4D2 (see, e.g., Laird, D. W., and Molday, R. S. (1988) Invest Opthalmol V is Sci 29, 419-428; herein incorporated by reference in its entirety) and 15 mM NaN3 at 4 degrees C. for 1 hour. After washing, cells were incubated with Cy3-conjugated anti mouse IgG (Jackson Immunologicals), washed and mounted. For FACS analysis, 4D2 and PE-conjugated anti mouse IgG (Jackson Immunologicals) were used to monitor the Rho tagged receptor expression. Anti HA rabbit antibodies (Sigma) and Alexa 488 conjugated anti rabbit IgG (Molecular Probes) was used to stain the HA-β2 adrenergic receptor. To establish the Hana3a cells, 1 ug/ml of puromycin was used for selection. 96 colonies were picked and assayed using luciferase assay using OREG.

23-1 = experiment: Living-cell staining of cell-surface 23-1; conditions: accessory protein co-transfected in 293T cells
Procedure: as §1

S6 activity as indicated by luciferase expression (OR-S6/S79): Increased enhancement
B1: RTP1-A1: RTP1 variant from deleting portions of RTP1-A; murine SEQ ID NO: 46, human SEQ ID NO: 47 (protein, listed as Mus musculus)
chain: MCKSVTTGEWKKVFYEKMEEVKPADSWDFIIDPNLKHNVLAPGWKQYLELHASGRFHCSWCWHTWQSPHVVILFHMYLDKAQRAGSVRMRVFKQLCYECGTARLDESSMLEENIESLVDNLITSLREQCYGERGGHYRIHVASRQDNRRHRGEFCEACQEGIVHWKPSEKLLEEEATTYTFSRAPSPTKPQAETGSGCNFCSIPWCLFWATVLMLIIYLQFSFRTSV
cell-surface expression of OREG (OREG): Increased cell-surface staining
cell-surface expression of S6 (S6): Increased cell-surface staining
cell-surface expression of 23-1 (23-1): Increased cell-surface staining
